The numbers were not newly measured in patent US9241970B2, “Therapy for subarachnoid hemorrhage and ischemia” (NoNO Inc., priority 2011, dated 2016), which cites them from elsewhere.

The target of the series is binding of NMDAR2B to PSD-95 (Homo sapiens, UniProt P78352). The conditions noted are these: reported by Bach.
Sequence of binding of NMDAR2B to PSD-95 (P78352 whole entry): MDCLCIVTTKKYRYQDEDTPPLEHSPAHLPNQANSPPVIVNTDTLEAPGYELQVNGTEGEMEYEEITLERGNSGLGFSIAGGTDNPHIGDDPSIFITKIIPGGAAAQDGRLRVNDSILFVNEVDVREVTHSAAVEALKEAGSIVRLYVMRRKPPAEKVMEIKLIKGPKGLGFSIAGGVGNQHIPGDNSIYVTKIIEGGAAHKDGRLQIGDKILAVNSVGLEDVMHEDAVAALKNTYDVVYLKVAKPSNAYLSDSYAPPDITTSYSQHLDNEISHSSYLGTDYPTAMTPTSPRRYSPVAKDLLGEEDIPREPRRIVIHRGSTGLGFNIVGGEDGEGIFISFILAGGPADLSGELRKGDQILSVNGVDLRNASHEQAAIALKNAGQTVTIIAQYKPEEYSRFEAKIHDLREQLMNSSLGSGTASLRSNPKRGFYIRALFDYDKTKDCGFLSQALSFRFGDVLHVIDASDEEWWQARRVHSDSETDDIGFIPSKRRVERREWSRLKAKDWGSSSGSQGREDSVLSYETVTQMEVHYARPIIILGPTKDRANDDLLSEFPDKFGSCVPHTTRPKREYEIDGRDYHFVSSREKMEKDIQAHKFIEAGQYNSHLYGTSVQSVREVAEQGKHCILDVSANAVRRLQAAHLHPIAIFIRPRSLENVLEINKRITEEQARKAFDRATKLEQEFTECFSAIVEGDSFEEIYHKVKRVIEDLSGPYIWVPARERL

On to IESDV (listed as Homo sapiens), for which the “inhibition of binding of NMDAR2B to PSD-95” value is “effective in inhibiting binding of NMDAR2B to PSD-95”.
